Data as given in PMC8740593.

T1: QHB-DB (QHB/OsWOX5 DNA-binding domain) (Oryza sativa (rice), UniProt Q8W0F1 1-82)
T1 sequence: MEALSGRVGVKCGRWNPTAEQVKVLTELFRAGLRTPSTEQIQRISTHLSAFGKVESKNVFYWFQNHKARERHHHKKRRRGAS

B1: P2 (dsDNA)
DNA 1: TTTTATAATTAATCACTCCTTGCTGCTTAATCACCCAATTAATCACACCTGATCTACCCA
DNA 2: TGGGTAGATCAGGTGTGATTAATTGGGTGATTAAGCAGCAAGGAGTGATTAATTATAAAA
B2: M3 (Core 3 mutated) (dsDNA)
DNA 1: TTTTATAATTAATCACTCCTTGCTGCTTAATCACCCAACCGGTCACACCTGATCTACCCA
DNA 2: TGGGTAGATCAGGTGTGACCGGTTGGGTGATTAAGCAGCAAGGAGTGATTAATTATAAAA
B3: M1 (Core 1 mutated) (dsDNA)
DNA 1: TTTTATGGCCGGTCACTCCTTGCTGCTTAATCACCCAATTAATCACACCTGATCTACCCA
DNA 2: TGGGTAGATCAGGTGTGATTAATTGGGTGATTAAGCAGCAAGGAGTGACCGGCCATAAAA
B4: Positive control (AGAMOUS intron) (dsDNA)
DNA 1: ATGTCTATTGGATTTATACCCAATGTGTTAATGGGTTGTTGACACATGTCACATGTCTGA
DNA 2: TCAGACATGTGACATGTGTCAACAACCCATTAACACATTGGGTATAAATCCAATAGACAT
B5: P1 (dsDNA)
DNA 1: AAAGATAATAAAAATGTTTATTTCGATGCATTAATTAGTTGTTAGAGTCTTTTGTTGTGT
DNA 2: ACACAACAAAAGACTCTAACAACTAATTAATGCATCGAAATAAACATTTTTATTATCTTT
B6: P3 (dsDNA)
DNA 1: GTAGATGGTACCCGCTGCAGTAAGCCTCCATTAAGCTTGAATTGCTGCTCCCTTGGGCGC
DNA 2: GCGCCCAAGGGAGCAGCAATTCAAGCTTAATGGAGGCTTACTGCAGCGGGTACCATCTAC

molecular target: T1, QHB-DB (QHB/OsWOX5 DNA-binding domain); assay: EMSA

Binder | binding result
B1 | binds
B2 | no binding
B3 | no binding
B4 | binds
B5 | no binding
B6 | no binding
